The text below walks through data of patent US20040121955A1.

The target of data set [1] is VEGF receptors on bovine aortic endothelial cells. The data set is described as follows: cell-based or functional assay.

Chain of rPAI-123, P79335 (P79335 whole entry, looked up): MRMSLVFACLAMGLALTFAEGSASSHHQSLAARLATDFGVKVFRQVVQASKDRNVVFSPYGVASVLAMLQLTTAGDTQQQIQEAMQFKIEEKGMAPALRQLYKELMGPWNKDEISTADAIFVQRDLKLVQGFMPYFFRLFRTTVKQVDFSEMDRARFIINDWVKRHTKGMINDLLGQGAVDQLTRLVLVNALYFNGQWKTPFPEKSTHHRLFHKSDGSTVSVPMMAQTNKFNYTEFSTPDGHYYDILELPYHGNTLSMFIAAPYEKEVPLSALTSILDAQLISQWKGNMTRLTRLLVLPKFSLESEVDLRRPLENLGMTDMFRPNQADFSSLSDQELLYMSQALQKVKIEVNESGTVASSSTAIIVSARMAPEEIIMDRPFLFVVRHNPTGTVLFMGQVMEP
Chain of rPAI-1Δ23, P79335 (P79335 whole entry, looked up, stated change not applied): as the sequence (P79335 whole entry, looked up) above

With 125I-VEGF (ligand), the apoptosis (Annexin V) in rPAI-123-treated BAEC versus PAEC in data set [1] was 60%.

B1: plasminogen (protein)
chain: EPLDDYVNTQGASLFSVTKKQLGAGSIEECAAKCEEDEEFTCRAFQYHSKEQQCVIMAENRKSSIIIRMRDVVLFEKKVYLSECKTGNGKNYRGTMSKTKNGITCQKWSSTSPHRPRFSPATHPSEGLEENYCRNPDNDPQGPWCYTTDPEKRYDYCDILECEEECMHCSGENYDGKISKTMSGLECQAWDSQSPHAHGYIPSKFPNKNLKKNYCRNPDRELRPWCFTTDPNKRWELCDIPRCTTPPPSSGPTYQCLKGTGENYRGNVAVTVSGHTCQHWSAQTPHTHNRTPENFPCKNLDENYCRNPDGKRAPWCHTTNSQVRWEYCKIPSCDSSPVSTEQLAPTAPPELTPVVQDCYHGDGQSYRGTSSTTTTGKKCQSWSSMTPHRHQKTPENYPNAGLTMNYCRNPDADKGPWCFTTDPSVRWEYCNLKKCSGTEASVVAPPPVVLLPDVETPSEEDCMFGNGKGYRGKRATTVTGTPCQDWAAQEPHRHSIFTPETNPRAGLEKNYCRNPDGDVGGPWCYTTNPRKLYDYCDVPQCAAPSFDCGKPQVEPKKCPGRVVGGCVAHPHSWPWQVSLRTRFGMHFCGGTLISPEWVLTAAHCLEKSPRPSSYKVILGAHQEVNLEPHVQEIEVSRLFLEPTRKDIALLKLSSPAVITDKVIPACLPSPNYVVADRTECFITGWGETQGTFGAGLLKEAQLPVIENKVCNRYEFLNGRVQSTELCAGHLAGGTDSCQGDSGGPLVCFEKDKYILQGVTSWGLGCARPNKPGVYVRVSRFVTWIEGVMRNN
As for B1, the “plasminogen cleavage (immunoblot probed for mini-plasminogen)” value in the data set with rPAI-1Δ23, P79335 was “the rPAI-1?23 protein did not cleave plasminogen, even when increasing concentrations of the recombinant protein were added”; with rPAI-123, P79335, “a distinct plasminogen cleavage product near 50 kDa in all reactions containing the rPAI-123 protein (3, 15 and 30 nM)”.
